T1: trypsin (Bos taurus, UniProt P00760)
T1 construct: 100 μg/ml of trypsin (TPCK-treated, Sigma-Aldrich); purchased Sigma-Aldrich
T1 sequence (P00760 24-246): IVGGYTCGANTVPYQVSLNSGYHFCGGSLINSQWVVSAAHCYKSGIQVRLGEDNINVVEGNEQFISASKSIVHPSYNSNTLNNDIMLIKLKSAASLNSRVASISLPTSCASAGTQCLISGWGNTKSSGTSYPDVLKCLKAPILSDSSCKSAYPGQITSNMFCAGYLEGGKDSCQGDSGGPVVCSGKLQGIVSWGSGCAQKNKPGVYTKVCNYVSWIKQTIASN

B1: trypsin: trypsin, TPCK-treated, Sigma-Aldrich, solution without additives (protein, UniProt P00760 24-246, looked up)
Serine protease 1: T1 sequence (P00760 24-246)
modifications: TPCK-treated
notes: trypsin, TPCK-treated, Sigma-Aldrich, solution without additives
B2: plasmin: plasmin, specific activity 3.2 units/mg, Sigma-Aldrich, solution without additives (protein, UniProt P00747 20-580; P00747 581-810, looked up)
Plasmin heavy chain A: EPLDDYVNTQGASLFSVTKKQLGAGSIEECAAKCEEDEEFTCRAFQYHSKEQQCVIMAENRKSSIIIRMRDVVLFEKKVYLSECKTGNGKNYRGTMSKTKNGITCQKWSSTSPHRPRFSPATHPSEGLEENYCRNPDNDPQGPWCYTTDPEKRYDYCDILECEEECMHCSGENYDGKISKTMSGLECQAWDSQSPHAHGYIPSKFPNKNLKKNYCRNPDRELRPWCFTTDPNKRWELCDIPRCTTPPPSSGPTYQCLKGTGENYRGNVAVTVSGHTCQHWSAQTPHTHNRTPENFPCKNLDENYCRNPDGKRAPWCHTTNSQVRWEYCKIPSCDSSPVSTEQLAPTAPPELTPVVQDCYHGDGQSYRGTSSTTTTGKKCQSWSSMTPHRHQKTPENYPNAGLTMNYCRNPDADKGPWCFTTDPSVRWEYCNLKKCSGTEASVVAPPPVVLLPDVETPSEEDCMFGNGKGYRGKRATTVTGTPCQDWAAQEPHRHSIFTPETNPRAGLEKNYCRNPDGDVGGPWCYTTNPRKLYDYCDVPQCAAPSFDCGKPQVEPKKCPGR
Plasmin light chain B: VVGGCVAHPHSWPWQVSLRTRFGMHFCGGTLISPEWVLTAAHCLEKSPRPSSYKVILGAHQEVNLEPHVQEIEVSRLFLEPTRKDIALLKLSSPAVITDKVIPACLPSPNYVVADRTECFITGWGETQGTFGAGLLKEAQLPVIENKVCNRYEFLNGRVQSTELCAGHLAGGTDSCQGDSGGPLVCFEKDKYILQGVTSWGLGCARPNKPGVYVRVSRFVTWIEGVMRNN
modifications: Plasmin

How the values were obtained:
trypsin = molecular target: T1, trypsin; test: Stability of trypsin solutions (TAME substrate, T 70%); assay type: physicochemical; settings: 100 μg/ml trypsin in 10 mM HEPES, 0.13 M NaCl, pH 7.4, 37° C.
Method: The stabilization of solutions of trypsin in accordance with the invention was tested. The activity of trypsin was determined using tosyl arginine methyl ester (TAME) as substrate and measuring the absorbance change at 247 nm in a spectrophotometer. Solutions containing 100 μg/ml of trypsin (TPCK-treated, Sigma-Aldrich) in 10 mM HEPES and 0.13 M NaCl, pH 7.4, as well as stabilizers as indicated in Table 3 below were incubated at 37° C., and samples were taken out at various time intervals for activity determination.

plasmin = molecular target: T2, plasmin (Homo sapiens, UniProt P00747); test: Stability of plasmin solutions (Chromozym TH chromogenic substrate, T 70%); assay type: physicochemical; settings: 100 μg/ml plasmin in 10 mM HEPES, 0.13 M NaCl, pH 7.4, 37° C.
T2 construct: 100 μg/ml of plasmin (specific activity 3.2 units/mg, Sigma-Aldrich); purchased Sigma-Aldrich
Method: The stabilization of solutions of plasmin in accordance with the invention was tested. The activity of plasmin was determined using chromogenic peptide substrate Chromozym TH (Pentapharm, Switzerland) and measurement of absorbance change at 405 nm in a spectrophotometer. Solutions containing 100 μg/ml of plasmin (specific activity 3.2 units/mg, Sigma-Aldrich) in 10 mM HEPES and 0.13 M NaCl, pH 7.4, as well as stabilizers as indicated in Table 2 below were incubated at 37° C., and samples were taken out at various time intervals for activity determination.

Row | Molecule | T 70% (trypsin) [h] | T 70% (plasmin) [h]
1 | B1 | 0.6 | –
2 | B2 | – | 3

From patent US8574569B2, “Stabilized protease composition” (Trobio AB, priority 2005, dated 2013)
